B1: R3HCD27 (VHH)
VHH: QVQLQESGGGSVQPGGSLRLSCAASGFTFDDYAMSWVRQVPGKGLEWVSTINWNGGSAEYAEPVKGRFTISRDNAKNTVYLQMNSLKLEDTAVYYCAKDADLVWYNLSTGQGTQVTVSS
notes: not shown: His tag (His-tagged VHHs); the vectors described carry His6 at the C-terminus; exact junction of the tested form not sta
B2: R3HCD129 (VHH)
VHH: QVQLQESGGGLVQPGGSLRLSCAASGFTFDDYAMSWVRQVPGKGLEWVSTINWNGGSAEYAEPVKGRFTISRDNAKNTVYLQMNSLKLEDTAVYYCAKDADLVWYNLRTGQGTQVTVSS
notes: as for B1
B3: R2HCD26 (VHH)
VHH: QVQLQESGGGLVQAGGSLRLSCAASGFTFDDYAIGWFRQAPGKEREGVSCIRVSDGSTYYADPVKGRFTISSDNAKNTVYLQMNSLKPEDAAVYYCAAGSLYTCVQSIVVVPARPYYDMDYWGKGTQVTVSS
notes: as for B1

target: T1, His6-tagged extracellular domain of human CD8A (human, UniProt P01732 22-182); assay: ELISA, crude periplasmic extracts on coated His-tagged extracellular domain of human CD8A
T1 construct: extracellular domain; coated on the solid phase for panning and for the ELISA screening; also called Hiss-tagged extracellular domain of human CD8A; not shown: His tag
Experimental: Three consecutive rounds of panning of a VHH library were performed on solid-phase coated Hiss-tagged extracellular domain of human CD8A (200 μg/ml, 20 μg/well). The enrichment for antigen-specific phages was assessed after each round of panning by comparing the number of phagemid particles eluted from antigen-coated wells with the number of phagemid particles eluted from only-blocked wells (negative control wells). […] 285 colonies (95 & 190 from 2nd and 3rd rounds, respectively) were randomly selected and analyzed by ELISA for the presence of antigen-specific VHHs in their periplasmic extracts (ELISA using crude periplasmic extracts including soluble VHHs). The antigen used for the ELISA screening was the same as the one used for immunization and panning. Out of these 285 colonies, 64 colonies (3 and 61 from 2nd and 3rd rounds of panning, respectively) scored positive in this assay. Based on sequence data, the 64 positive colonies represented 16 different VHHs. The 16 different VHHs belong to 6 different CDR3 groups. Table 2 below provides a description of 3 clones representing the 3 different anti-human CD8A VHH genes. E. coli TG1 harboring recombinant phagemid pMECS containing anti-human CD8A VHH sequences was generated and stored at −80° C. The vector pMECS codes for ampicillin resistance.

T1 sequence (P01732 22-182): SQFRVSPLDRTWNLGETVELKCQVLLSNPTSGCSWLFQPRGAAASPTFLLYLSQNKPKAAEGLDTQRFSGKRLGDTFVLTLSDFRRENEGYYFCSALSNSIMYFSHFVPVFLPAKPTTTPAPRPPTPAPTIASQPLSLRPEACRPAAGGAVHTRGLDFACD

Binding result, binds:
B1
B2
B3
